Data on three proteins can be found in paper PMC3686320 (Biochemistry, 2013).

The term stoichiometry N denotes a count of units in the complex or per binding partner.

Where two headings read alike, the source gives them in different places.

What all share (experiment): AUC
Data set [1] deals with the molecule itself.
Data set [2] deals with the molecule itself. The source holds these as a separate data set.
Data set [3] concerns the molecule itself. This is another data set of the same source.

B1: Escherichia coli primosomal DnaT protein, wild type (natural protein, E. coli, UniProt P0A8J2 1-179, looked up)
chain: MSSRVLTPDVVGIDALVHDHQTVLAKAEGGVVAVFANNAPAFYAVTPARLAELLALEEKLARPGSDVALDDQLYQEPQAAPVAVPMGKFAMYPDWQPDADFIRLAALWGVALREPVTTEELASFIAYWQAEGKVFHHVQWQQKLARSLQIGRASNGGLPKRDVNTVSEPDSQIPPGFRG
With B1, the “stoichiometry N” value in the data set “AUC [1]” turned out to be 3.

B2: isolated N-terminal core domain of the DnaT protein (domain or fragment, E. coli, UniProt P0A8J2 1-161, looked up)
chain: MSSRVLTPDVVGIDALVHDHQTVLAKAEGGVVAVFANNAPAFYAVTPARLAELLALEEKLARPGSDVALDDQLYQEPQAAPVAVPMGKFAMYPDWQPDADFIRLAALWGVALREPVTTEELASFIAYWQAEGKVFHHVQWQQKLARSLQIGRASNGGLPKR
Regarding B2, the “stoichiometry N” value in the data set “AUC [2]” came to 2.

B3: fluorescein-labeled N-terminal core domain of the DnaT variant S3C (domain or fragment, E. coli, UniProt P0A8J2 1-161, looked up)
chain: MSCRVLTPDVVGIDALVHDHQTVLAKAEGGVVAVFANNAPAFYAVTPARLAELLALEEKLARPGSDVALDDQLYQEPQAAPVAVPMGKFAMYPDWQPDADFIRLAALWGVALREPVTTEELASFIAYWQAEGKVFHHVQWQQKLARSLQIGRASNGGLPKR
modifications: fluorescein (fluorescein maleimide) on the cysteine that replaces serine 3
For B3, in “AUC [3]”, the “stoichiometry N” value was found to be 2.
